The experiment addresses C3b (human) (UniProt P01024). Description: SPR; Biacore T200; about 2488 RU of C3b immobilised by amine coupling on a CM5 chip; CFHR3 injected in duplicate at 10-300 ug/ml; 25 °C, 30 ul/min; 10 mM Hepes-buffered saline, 3 mM ENTA (so in the source), 0.05% surfactant p20; wild type: KD from rate constants, mutant: steady-state affinity fit. For orientation: Surface plasmon resonance follows binding to a sensor surface in real time, without labels.

The substance “wild-type recombinant CFHR3 (complement factor H-related protein 3) (from UniProt Q02985 19-330) (natural protein)” had a Kd of 0.15 µM, a koff of 0.00128 s⁻¹ and a kon of 8350 M⁻¹ s⁻¹.

On to “mutant recombinant CFHR3 Arg142Cys (rs61737525, c.424 C > T) (from UniProt Q02985 19-330) (natural protein)”, for which the Kd is 18 µM.

As a reminder, the Kd is the concentration at which binding is half-saturated. In general, koff refers to a measure of how fast the partners let go of each other. A word on the kon: it is the second-order rate constant of association. Read a low kon as slow association.

(Values after paper PMC5519609.)
